± gives the standard deviation of the averaged measurements.
B1: library; a variant is named by its letters at N, in order (parent)
chain: GCUGUCACCGAGAAACUGUGAAGUAUAUCUUAAACCUGGGCACUUAAAAGAUAUAUGGAGUUAGUAGUGCAACCUGCUCGGUCUGAUGAGUCCNNNNNNGGACGAAACAGC

Legend:
cyclic di-GMP [1] = variants of: B1; assay: FACS-Seq fitted mean relative fluorescence mCherry/BFP without ligand (log10 relative fluorescence); HEK293T; ligand: cyclic di-GMP (c-di-GMP-II aptamer); higher = higher reporter protein expression; conditions: ligand present: no
Outline: (§1)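 Fluorescence figures are normalized fitted normal means of sequenced bin counts. Enriched, lentivirally transduced HEK293T libraries with a ribozyme-switch mCherry reporter and EF1α-BFP were held 48 h with or without ligand, then sorted into 6 mCherry/BFP bins. PCR-amplified, barcoded genomic DNA from each bin was sequenced on MiSeq. Means of log10(mCherry/BFP) were scaled to five spiked-in control ribozymes.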

cyclic di-GMP [2] = variants of: B1; assay: normalized RNA/DNA level without ligand (relative to sTRSVctl = 100) (log10 (% of sTRSVctl)); HEK293T; ligand: cyclic di-GMP (c-di-GMP-II aptamer); higher = less ribozyme self-cleavage, higher mRNA level; conditions: reporter: mCherry (pCS4076), ligand present: no
Outline: (§2)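 Library plasmids carrying ribozyme switches linked to mCherry, or to eGFP in some ligand experiments, were transfected into HEK293T at 4 µg per 6-well well, with any ligand added 1 h earlier. Seventy-two hours on, total RNA was extracted with EDTA and reverse-transcribed, amplified, barcoded and sequenced. RNA level was RNA over DNA reads normalized to a spiked-in non-cleaving sequence or to the top sequences, then scaled and log-transformed. The top set was 25 sequences, the transform was ×100 and log10, and sequences needed ≥100 DNA reads.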

cyclic di-GMP [3] = variants of: B1; assay: FACS-Seq fitted mean relative fluorescence mCherry/BFP with ligand (log10 relative fluorescence); HEK293T; ligand: cyclic di-GMP (c-di-GMP-II aptamer); ligand concentration (+) FACS-Seq: 1 mM; higher = higher reporter protein expression; conditions: ligand present: yes
Outline: as §1

cyclic di-GMP [4] = variants of: B1; assay: normalized RNA/DNA level with ligand (relative to sTRSVctl = 100) (log10 (% of sTRSVctl)); HEK293T; ligand: cyclic di-GMP (c-di-GMP-II aptamer); ligand concentration (+) RNA-Seq: 1 mM; higher = less ribozyme self-cleavage, higher mRNA level; conditions: reporter: mCherry (pCS4076), ligand present: yes
Outline: as §2

Variant | FACS-Seq fitted mean (log10) (cyclic di-GMP [1]) | normalized RNA/DNA level without ligand (log10) (cyclic di-GMP [2]) | FACS-Seq fitted mean (log10) (cyclic di-GMP [3]) | normalized RNA/DNA level with ligand (log10) (cyclic di-GMP [4])
ACUUUA | -1.11 ± 0.037 | 1.59 ± 0.044 | -0.989 ± 0.12 | 1.76 ± 0.067
UGAUAC | -0.0926 ± 0.067 | 1.69 ± 0.02 | 0.197 ± 0.054 | 1.8 ± 0.12
UGAUAG | -0.125 ± 0.093 | 1.696 ± 0.015 | 0.191 ± 0.081 | 1.83 ± 0.12
UGAUAU | -0.406 ± 0.087 | 1.649 ± 0.0089 | -0.0482 ± 0.1 | 1.82 ± 0.08
CGACGA | -0.45 ± 0.042 | 1.5 ± 0.094 | -0.105 ± 0.043 | 1.71 ± 0.071
GGCGAG | -0.757 ± 0.036 | 1.5556 ± 0.00075 | -0.498 ± 0.0053 | 1.68 ± 0.14
GGACCC | 0.129 ± 0.17 | 1.86 ± 0.022 | 0.32 ± 0.061 | 1.93 ± 0.086
CGCUAC | -0.231 ± 0.14 | 1.65 ± 0.021 | 0.045 ± 0.046 | 1.81 ± 0.11
CGCUAU | -1.02 ± 0.037 | 1.41 ± 0.12 | -0.866 ± 0.11 | 1.64 ± 0.094
CGCUAA | -0.647 ± 0.045 | 1.22 ± 0.066 | -0.386 ± 0.093 | 1.37 ± 0.059
CGCCUC | 0.0848 ± 0.15 | 1.713 ± 0.011 | 0.399 ± 0.0065 | 1.85 ± 0.067
CGCCUU | -0.439 ± 0.021 | 1.5321 ± 0.00037 | -0.126 ± 0.059 | 1.72 ± 0.13
CGCCUA | -0.608 ± 0.088 | 1.37 ± 0.12 | -0.414 ± 0.049 | 1.58 ± 0.12
CGGCAC | -0.036 ± 0.21 | 1.64 ± 0.038 | 0.073 ± 0.042 | 1.8 ± 0.12
CGGCAU | -0.564 ± 0.044 | 1.49 ± 0.073 | -0.2893 ± 0.0014 | 1.64 ± 0.13
CGGCAA | -0.818 ± 0.011 | 1.28 ± 0.077 | -0.675 ± 0.04 | 1.47 ± 0.097
UGCGUU | -0.0716 ± 0.19 | 1.691 ± 0.0015 | 0.15 ± 0.093 | 1.9 ± 0.096
CGCGUA | -0.52 ± 0.06 | 1.45 ± 0.16 | -0.224 ± 0.062 | 1.638 ± 0.011

Variant | FACS-Seq fitted mean (log10) (cyclic di-GMP [1]) | normalized RNA/DNA level without ligand (log10) (cyclic di-GMP [2]) | FACS-Seq fitted mean (log10) (cyclic di-GMP [3]) | normalized RNA/DNA level with ligand (log10) (cyclic di-GMP [4])
UGGCAU | 0.119 ± 0.25 | 1.66 ± 0.11 | 0.414 ± 0.038 | 1.82 ± 0.043
CGAUAU | -0.508 ± 0.039 | 1.43 ± 0.1 | -0.183 ± 0.014 | 1.62 ± 0.11
CGAUAA | -0.6883 ± 0.0045 | 1.22 ± 0.1 | -0.358 ± 0.058 | 1.41 ± 0.033
AGCCUA | -0.0368 ± 0.15 | 1.62 ± 0.011 | 0.288 ± 0.026 | 1.8 ± 0.15
AGCCUU | 0.0156 ± 0.081 | 1.712 ± 0.003 | 0.33 ± 0.038 | 1.85 ± 0.084
AGCGUC | -0.71 ± 0.022 | 1.78 ± 0.028 | -0.542 ± 0.044 | 1.9 ± 0.15
AGCGUG | -0.586 ± 0.017 | 1.6 ± 0.017 | -0.279 ± 0.04 | 1.78 ± 0.14
CGAAUA | -0.507 ± 0.0079 | 1.24 ± 0.091 | -0.209 ± 0.083 | 1.45 ± 0.086
CGAAUU | -0.504 ± 0.036 | 1.38 ± 0.11 | -0.238 ± 0.016 | 1.57 ± 0.088
GGGGAC | 0.068 ± 0.1 | 1.65 ± 0.027 | 0.307 ± 0.041 | 1.8 ± 0.17
AGCUGC | -0.105 ± 0.077 | 1.74 ± 0.044 | 0.255 ± 0.092 | 1.87 ± 0.14
CGACAA | -0.57 ± 0.068 | 1.29 ± 0.15 | -0.273 ± 0.0065 | 1.54 ± 0.097
UGCGAG | -0.503 ± 0.0063 | 1.7 ± 0.039 | -0.177 ± 0.052 | 1.8 ± 0.081
UGCAAU | -0.335 ± 0.12 | 1.66 ± 0.045 | -0.151 ± 0.047 | 1.81 ± 0.089
UGAUUU | 0.198 ± 0.26 | 1.69 ± 0.047 | 0.343 ± 0.1 | 1.86 ± 0.16
CGGAGC | 0.169 ± 0.11 | 1.61 ± 0.052 | 0.426 ± 0.022 | 1.79 ± 0.065
CGCUCU | -0.865 ± 0.06 | 1.54 ± 0.049 | -0.64 ± 0.039 | 1.73 ± 0.1
CGGAAU | -0.644 ± 0.016 | 1.34 ± 0.11 | -0.366 ± 0.027 | 1.44 ± 0.13

Source: the supplement of paper PMC6757056
